Measurements taken from patent US7553667B2, “Regulation of gene expression using chromatin remodelling factors” (Her Majesty the Queen in right of Canada as represented by …, priority 2002, dated 2009).

T1: GST-Gcn5 (Arabidopsis thaliana, UniProt Q9AR19)
T1 construct: made in house; host or cells: E. coli BL21-CodonPlus (DE3)-RP
T1 sequence (Q9AR19 1-568): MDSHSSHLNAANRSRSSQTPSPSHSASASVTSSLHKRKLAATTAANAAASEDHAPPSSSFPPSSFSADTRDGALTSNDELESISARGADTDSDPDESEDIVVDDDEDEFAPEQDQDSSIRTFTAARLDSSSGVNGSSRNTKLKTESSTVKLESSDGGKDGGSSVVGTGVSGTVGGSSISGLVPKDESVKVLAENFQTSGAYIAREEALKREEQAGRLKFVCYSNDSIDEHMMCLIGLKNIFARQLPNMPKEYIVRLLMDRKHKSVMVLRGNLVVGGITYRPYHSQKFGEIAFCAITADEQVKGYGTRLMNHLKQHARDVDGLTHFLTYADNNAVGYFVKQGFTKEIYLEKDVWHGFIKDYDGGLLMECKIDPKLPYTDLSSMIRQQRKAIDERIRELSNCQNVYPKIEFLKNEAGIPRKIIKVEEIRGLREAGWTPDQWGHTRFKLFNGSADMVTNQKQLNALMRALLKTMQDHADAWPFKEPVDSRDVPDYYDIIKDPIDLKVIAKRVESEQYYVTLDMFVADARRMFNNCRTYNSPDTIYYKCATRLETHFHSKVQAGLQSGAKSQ

T2: GST-HDA19 (Arabidopsis thaliana, UniProt O22446)
T2 construct: made in house; host or cells: E. coli BL21-CodonPlus (DE3)-RP
T2 sequence (O22446 1-501): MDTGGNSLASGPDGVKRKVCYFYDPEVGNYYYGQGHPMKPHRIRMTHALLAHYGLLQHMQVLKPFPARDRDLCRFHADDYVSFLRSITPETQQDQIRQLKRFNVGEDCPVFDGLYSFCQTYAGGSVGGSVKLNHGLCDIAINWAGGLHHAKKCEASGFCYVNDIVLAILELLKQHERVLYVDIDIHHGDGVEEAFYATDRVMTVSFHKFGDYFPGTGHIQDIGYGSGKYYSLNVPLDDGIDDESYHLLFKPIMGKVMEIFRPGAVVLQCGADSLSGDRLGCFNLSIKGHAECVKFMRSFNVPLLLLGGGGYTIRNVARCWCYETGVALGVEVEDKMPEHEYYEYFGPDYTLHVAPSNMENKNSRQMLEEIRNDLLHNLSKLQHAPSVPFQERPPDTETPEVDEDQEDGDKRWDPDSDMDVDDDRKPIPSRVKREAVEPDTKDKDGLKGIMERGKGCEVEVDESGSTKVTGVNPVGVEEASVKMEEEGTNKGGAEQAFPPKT

T3: Gcn5 (Arabidopsis thaliana, UniProt Q9AR19)
T3 construct: expressed in transfected cells; host or cells: Saccharomyces cerevisiae MaV203
T3 sequence (Q9AR19 1-568): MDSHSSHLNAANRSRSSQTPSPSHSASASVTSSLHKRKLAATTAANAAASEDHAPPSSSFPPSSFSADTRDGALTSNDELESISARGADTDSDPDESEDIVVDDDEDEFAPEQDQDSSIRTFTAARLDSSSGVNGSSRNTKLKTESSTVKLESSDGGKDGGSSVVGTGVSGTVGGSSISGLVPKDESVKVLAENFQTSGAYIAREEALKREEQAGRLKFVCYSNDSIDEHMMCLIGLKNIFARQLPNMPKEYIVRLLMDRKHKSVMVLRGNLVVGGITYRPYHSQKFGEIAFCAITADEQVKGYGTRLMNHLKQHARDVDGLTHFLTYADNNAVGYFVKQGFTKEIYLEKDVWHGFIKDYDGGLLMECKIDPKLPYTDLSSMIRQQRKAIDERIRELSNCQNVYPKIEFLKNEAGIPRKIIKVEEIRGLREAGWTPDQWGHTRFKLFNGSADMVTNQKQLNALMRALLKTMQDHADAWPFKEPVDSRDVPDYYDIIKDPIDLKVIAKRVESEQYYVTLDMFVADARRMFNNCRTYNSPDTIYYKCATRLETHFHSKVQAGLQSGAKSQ


How the values were obtained:
[1] = system: lacZ reporter gene driven by promoter containing GAL4 DNA binding sites; assay: Transactivation assay of bnKCP1 using yeast one-hybrid system; type: cell-based, yeast MaV203
Source text: Effector plasmids pDBLeu-bnKCP1^1-160, pDBLeu-bnKCP1^1-80, pDBLeu-bnKCP1^81-215 and pDBLeu-bnKCP1 were constructed by ligating the PCR-amplified fragments ΔbnKCP1^1-160, ΔbnKCP1^1-80, ΔbnKCP1^81-215 and the coding region of bnKCP1 into the SalI/NotI sites of pDBLeu vector (GibcoL BRL) in-frame with the GAL4 DB sequence. The oligonucleotide primers for PCR amplification were as follows: […]
The three reporter genes, lacZ, HIS3 and URA3, which were chromosomally integrated in the genome of MaV203 yeast cells were driven by unrelated promoters containing GAL4 DNA binding sites (GibcoL BRL). For transient assays, the effector constructs or the negative control vector pDBLeu were transferred to the MaV203 yeast cells. The β-galactosidase activity was measured using CPRG (chlorophenol red-β-D-galactopyranoside) according to the manufacturer's instructions (GibcoL BRL). The MaV203 cells containing plasmids pDBLeu-HDA19 and pPC86-bnKCP1 were used as the positive control. In addition, we used three yeast control strains A, B, and C (GibcoL BRL), which were developed to contain plasmid pairs expressing fusion proteins with none, weak and moderately strong protein-protein interaction strength, respectively. Transient Expression of the GUS-bnCKP1 Fusion Protein

GST-Gcn5 = target: T1, GST-Gcn5; assay: GST pulldown affinity assay of bnKCP1 and mutants with GST-Gcn5; type: binding; settings: [35S]Met-labeled in vitro translated protein
Source text: (§1) The full coding regions of the Arabidopsis HAT, Gcn5 (Dr. M. Thomashow, Michigan State University, MI), and HDA19 (Accession # AF195547) were PCR amplified, sequence analyzed and inserted in-frame with the GST (glutathione s-transferase) into the SalI and NotI sites of vector pGEX-6P-2 (Amersham Pharmacia). The forward used for the amplification of Gcn5 was:
(§2) Recombinant pGEX-6P-2 plasmids were used to transform E. coli BL21-CodonPlus (DE3)-RP competent cells (Stratagene). Expression and purification under non-denaturing conditions were carried out as described by Gao et al. (Gao, M.-J. et al., 2002). The GST-Gcn5 and GST-HDA19 fusion proteins were analyzed by 7.5% SDS-PAGE (SDS-polyacrylamide gel electrophoresis) and western blotting with rabbit anti-GST-Pi polyclonal antibody (Chemicon) using ECL Western blotting analysis system (Amersham Pharmacia).
(§3) Full-length bnKCP1 and truncated mutant bnKCP1^1-160 and bnKCP1^1-80 proteins labeled with [^35S]methionine were produced using TNT-Quick Coupled Transcription/Translation System (Promega) according to the manufacture's instructions, with some modifications. A total of 1 μl of RNase inhibitor (GibcoL BRL) and 1 μl of protease inhibitors set (Roche) were added to the lysate reaction. After incubation for 90 min at 30° C., RNase A was added to the reaction to a final concentration of 0.2 mg/ml and incubated for 5 min at the same temperature.
In vitro protein interaction was detected with GST pulldown affinity assays as described by Ahmad et al. (1999) with some modifications. […] After washing six times with 1.2 ml of bead-binding buffer without BSA and EtBr but containing 12 μl of protease inhibitors set (Roche), the bound proteins were eluted with 30 μl of 2×SDS loading buffer, boiled for 2 min and analyzed by 12% SDS-PAGE. […]

GST-HDA19 [2] = target: T2, GST-HDA19; assay: GST pulldown affinity assay of bnKCP1 and mutants with GST-HDA19; type: binding; settings: [35S]Met-labeled in vitro translated protein
Source text: as §1, §2, §3
In vitro protein interaction was detected with GST pulldown affinity assays as described by Ahmad et al. (1999) with some modifications. Briefly, 6 μg of GST or 4 μg of GST-fusion protein was incubated with 5 μl of [^35S]Met-labeled translation mixture in 200 μl of bead-binding buffer (50 mM K-phosphate, pH 7.6, 450 mM KCl, 10 mM MgCl2, 10% glycerol, 1% Triton X-100, 1% BSA and 1 μl of diluted 1:12 protease inhibitors set) for 1 h at room temperature. After incubation, 20 μl of 50% slurry of glutathione-Sepharose beads containing 10 mg/ml of BSA and 4 μg of EtBr was mixed with the reaction mixture followed by gentle rotation for 1 h at 4° C. After washing six times with 1.2 ml of bead-binding buffer without BSA and EtBr but containing 12 μl of protease inhibitors set (Roche), the bound proteins were eluted with 30 μl of 2×SDS loading buffer, boiled for 2 min and analyzed by 12% SDS-PAGE. After electrophoresis, the gels were dried, treated with Amplify (Amersham Pharmacia) and subjected to fluorography.

Gcn5 = target: T3, Gcn5; assay: Yeast two-hybrid interaction of bnKCP1 with Gcn5 (HIS3, URA3, lacZ reporters); type: cell-based; settings: MaV203 yeast, Gcn5 fused to Gal4 DB, data not shown
Source text: To reassess the interaction of bnKCP1 with Gcn5 in vivo, the ORF of the Arabidopsis Gcn5 was fused to the yeast Gal4 DNA binding domain in pDBLeu vector and then used to transform yeast MaV203 cells expressing bnKCP1 fused to the yeast Gal4 activation domain in pPC86 vector.

[3] = system: lacZ reporter gene driven by a promoter containing GAL4 DNA binding sites; assay: Transactivation assay of BnSCL1 in yeast; type: cell-based, yeast MaV203
Source text: MaV203 yeast cells expressing the lacZ reporter gene driven by a promoter containing GAL4 DNA binding sites (GibcoL BRL) were transformed with the […]. These vectors were constructed by ligating the PCR-amplified fragments, ΔBnSCL1^1-358, ΔBnSCL1^1-261, ΔBnSCL1^1-217, ΔBnSCL1^1-145, ΔBnSCL1^146-358 and ΔBnSCL1^218-434 and the entire coding region of BnSCL1, respectively, into the SalI and NotI sites of the vector pDBLeu (GibcoL BRL) in-frame with the GAL4 DB sequence. The oligonucleotide primers for the amplification were the same as those used for the in vivo protein interaction assays. The β-galactosidase activity was measured using CPRG according to the manufacturer's instructions (GibcoL BRL). In addition to the yeast strains A, B and C, the yeast strains D (GibcoL BRL) that contain plasmid pairs expressing fusion protein with strong interaction strength was used as controls.

GST-HDA19 [4] = target: T2, GST-HDA19; assay: GST pulldown affinity assay of BnSCL1 and mutants with GST-HDA19; type: binding; settings: [35S]Met-labeled in vitro translated protein
Experimental: The open reading frame (ORF) of the HDA19 was PCR amplified, sequence analyzed, inserted in-frame with the GST (glutathione s-transferase) into the vector pGEX-6P-2 (Amersham Pharmacia), and transformed into E. coli BL21-CodonPlus (DE3)-RP competent cells (Stratagene) as previously described (Gao et al., 2003). The recombinant HDA19 protein was expressed and purified under non-denaturing conditions as described by Gao et al, 2002). The GST-HDA19 fusion protein was analyzed by western blotting with rabbit anti-GST-Pi polyclonal antibody (Chemicon) using ECL Western blotting analysis system (Amersham Pharmacia).
The entire coding region of BnSCL1 and four fragments, BnSCL1^1-358, BnSCL1^1-261, BnSCL1^1-217, and BnSCL1^1-145 […], respectively, were amplified by PCR and cloned into the HindIII and XhoI sites of the expression vector pET-28b (Novagen) in-frame with the His-Tag sequence. […]
The TnT-Quick Coupled Transcription/Translation System (Promega) was used to produce the full-length BnSCL1 protein and the truncated mutants ΔBnSCL1^1-358, ΔBnSCL1^1-261, ΔBnSCL1^1-217 and ΔBnSCL1^1-145 labeled with [^35S]methionine as previously described (Gao et al., 2003). In vitro protein interaction was detected with GST pulldown affinity assays as described by Ahmad et al. (1999) and Gao et al., (2003).

Molecule | activation of reporter genes HIS3 and URA3 ([1]; data not shown) | stimulation of β-galactosidase activity ([1]; relative to GAL4 DB alone or yeast control strain A) | in vitro binding to GST-Gcn5 (GST-Gcn5) | in vitro binding to GST-HDA19 (GST-HDA19 [2]) | induction of reporter genes HIS3, URA3 and lacZ with Gcn5, compared with HDA19 (Gcn5) | transactivation of reporter genes HIS3 and URA3 ([3]; data not shown) | increase of β-galactosidase activity ([3]; relative to vector pDBLeu alone or yeast control strain A) | in vitro binding to GST-HDA19 (GST-HDA19 [4])
bnKCP1: B. napus KID-containing protein 1, 215 amino acid protein interacting with HDA19 (SEQ ID NO:71) (protein, left off: large carriers) MAGGGPTFSIELSAYGSDLPTDKASGDIPNEEGSGLSRVGSGIWSGRTVDYSSESSSSIGTPGDSEEEDEESEEDNDEEELGLASLRSLEDSLPSKGLSSHYKGKSKSFGNLGEIGSVKEVPKQENPLNKKRRLQIYNKLARKSFYSWQNPKSMPLLPVHEDNDDEEGDDGDLSDEERGGDVLARRPSFKNRALKSMSCFALSDLQEEEEEEEDE | modestly activated | about 8 fold | bound | bound | relatively lower level |  |  | 
BnSCL1: Brassica napus SCARECROW-like protein 1, SEQ ID NO:81 (protein, left off: large carriers) MKLQASSPQDNQPSNTTNNSTDSNHLSMDEHAMRSMDWDSIMKELEVDDDSAPYQLQPSSFNLPVFPDIDSSDVYPGPNQITGYGFNSLDSVDNGGFDYIEDLIRVVDCIESDELHLAHVVLSQLNQRLQTSAGRPLQRAAFYFKEALGSLLTGTNRNQLFSWSDIVQKIRAIKEFSGISPIPLFSHFTANQAILDSLSSQSSSPFVHVVDFEIGFGGQYASLMREIAEKSANGGFLRVTAVVAEDCAVETRLVKENLTQFAAEMKIRFQIEFVLMKTFEILSFKAIRFVDGERTVVLISPAIFRRVIGIAEFVNNLGRVSPNVVVFVDSEGCTETAGSGSFRREFVSAFEFYTMVLESLDAAAPPGDLVKKIVETFLLRPKISAAVETAANRRSAGQMTWREMLCAAGMRPVQLSQFADFQAECLLEKAQVRGFHVAKRQGELVLCWHGRALVATSAWRF |  |  |  |  |  | strongly transactivated | approximately 20 fold | bound
